These results are taken from US20260116991A1.

Residue numbers refer to the chain shown, from its start.

In assay [1] the target is murine GPC3-his protein (Sino Biological, Cat. No. 50989-M08B) (murine) (UniProt Q8CFZ4). In words: ELISA, coated murine GPC3-His. Background: ELISA stands for enzyme-linked immunosorbent assay.
In assay [2] the target is monkey GPC3-His protein (monkey). As to the kind of experiment: ELISA, monkey GPC3-His coated; antibody 66.66 nM.
Assay [3] shares this target. As to the kind of experiment: ELISA, monkey GPC3-His coated; antibody 0.53 nM.
The target of assay [4] is monkey GPC3 on HEK293T-monkey GPC3 cells (monkey). In words: FACS on HEK293T-monkey GPC3 cells.
Assay [5] concerns the target monkey GPC3-His protein (monkey). As to the kind of experiment: ELISA, monkey GPC3-His coated; antibody 0.004 nM.
For assay [6] the target is unchanged. In words: ELISA, monkey GPC3-His coated; antibody 13.33 nM.
For assay [7] the target is unchanged. In words: ELISA, monkey GPC3-His coated; antibody 2.67 nM.
Assay [8] has the same target. As to the kind of experiment: ELISA, monkey GPC3-His coated; antibody 0.11 nM.
Assay [9] has the same target. In words: ELISA, monkey GPC3-His coated; antibody 0.0008 nM.
The target is the same in assay [10]. In words: ELISA, monkey GPC3-His coated; antibody 0.02 nM.

murine GPC3-his protein (Sino Biological, Cat. No. 50989-M08B) (murine), sequence (Q8CFZ4 25-558 limits assumed): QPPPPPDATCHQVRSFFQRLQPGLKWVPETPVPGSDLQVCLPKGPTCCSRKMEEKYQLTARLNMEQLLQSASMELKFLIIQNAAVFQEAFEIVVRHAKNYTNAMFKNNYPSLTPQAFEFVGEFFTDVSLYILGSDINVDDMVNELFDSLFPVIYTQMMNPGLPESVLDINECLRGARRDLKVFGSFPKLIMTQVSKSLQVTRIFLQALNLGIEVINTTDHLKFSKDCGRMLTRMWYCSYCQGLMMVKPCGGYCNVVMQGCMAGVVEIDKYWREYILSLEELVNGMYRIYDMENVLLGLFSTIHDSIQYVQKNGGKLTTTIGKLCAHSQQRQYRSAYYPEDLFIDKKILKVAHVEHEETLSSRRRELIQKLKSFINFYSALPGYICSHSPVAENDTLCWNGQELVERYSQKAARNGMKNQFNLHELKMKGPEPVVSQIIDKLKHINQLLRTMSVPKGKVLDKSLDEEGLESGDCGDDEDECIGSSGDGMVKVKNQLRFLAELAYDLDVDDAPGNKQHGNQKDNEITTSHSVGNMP

B1: F1.120.16 human-murine chimeric antibody (antibody, human IgG1, kappa, V domains shown)
VH: EFQLQQSGPELVKPGASVKISCKASGYSFTDYNMNWVKQSNGKSLEWIGLIHPKFSVTSYNRKFKGKATLTVDQSSSTAYMQLNSLTSEDSAVYYCARWAGDYFDYWGQGTTLTVSS
VL: DIVLTQSPATLSVTPGDSVSLSCRASQSISNNLHWYQQKSHESPRLLIKYASQSISGIPSRFSGSGSGTDFTLTINSVETEDFGMYFCQQSNSWPQTFGGGTKLEIKR
For the molecule B1, in [1], the OD450 at 0.0001 nM antibody is 0.05 OD450 nm, the OD450 at 0.001 nM antibody amounted to 0.07 OD450 nm, the OD450 at 0.01 nM antibody stood at 0.16 OD450 nm and the OD450 at 0.1 nM antibody was 0.72 OD450 nm. In [1], this molecule came in with an OD450 at 1 nM antibody of 0.76 OD450 nm, an OD450 at 10 nM antibody of 0.8 OD450 nm and an OD450 at 100 nM antibody of 0.54 OD450 nm.

B2: F1.57.21 human-murine chimeric antibody (antibody, human IgG1, kappa, V domains shown)
VH: QVQLQQSGAELARPGASVKLSCKASGYTFTSYGISWVKQITGQGLEWIGEIYPRSESTYYNEKFKGKATLTADKSSSTAYMELRSLTSEDSAVYFCARDYGNIYSFAYWGQGTLVTVSA
VL: DIQMTQSPASLSASVGETVTITCRTSENIYSYLAWYQQKQGKSPQLLVYNAKTLAEGVPSRFSGSGSGTQFSLKINSLQPEDFGSYYCQHHYGTPLTFGAGTKLELKR
In assay [1], B2 gave an OD450 at 0.0001 nM antibody of 0.05 OD450 nm, an OD450 at 0.001 nM antibody of 0.06 OD450 nm, an OD450 at 0.01 nM antibody of 0.07 OD450 nm and an OD450 at 0.1 nM antibody of 0.13 OD450 nm. Besides, in [1], the OD450 at 1 nM antibody was found to be 0.2 OD450 nm, the OD450 at 10 nM antibody stood at 0.79 OD450 nm and the OD450 at 100 nM antibody came to 0.65 OD450 nm.

B3: hAb007LH3L1 (antibody, human IgG1, V domains shown)
VH: EVQLVQSGAEVKKPGSSVKVSCKASGYTFTDYEMHWVRQAPGQGLEWMGTIDPETGNTAYNQKFKGRVTLTADKSTSTAYMELSSLRSEDTAVYYCTRPYSLTYWGQGTLVTVSS
VL: DIVMTQTPLSLPVTPGEPASISCRSSQSFVHSNGDTYLQWYLQKPGQSPQLLIYKVSNRFSGVPDRFSGSGSGTDFTLKISRVEAEDVGVYYCFQGSHVPYTFGQGTKLEIK
B3: the OD450 nm in assay [2] is 2.55; in [3], 2.17; in assay [5], 0.198; in assay [6], 2.39; in assay [7], 2.39; in assay [8], 1.12. Moreover, the OD450 nm in assay [9] worked out at 0.079; in [10], 0.368. The molecule further displayed an EC50 in assay [4] of 13.6 nM. In [4], this molecule registered a Max MFI of 37400 MFI.

B4: hAb007LH3L1b (antibody, human IgG1, V domains shown)
VH: B3 VH
VL: B3 VL with G34R
Consider B4, for which the OD450 nm in assay [2] stood at 2.58; in [3], 1.95; in assay [5], 0.103; in assay [6], 2.47; in assay [7], 2.37; in [8], 0.801. Moreover, the OD450 nm in assay [9] was 0.069; in [10], 0.252. In assay [4], this molecule showed an EC50 of 13.7 nM. The Max MFI in assay [4] was found to be 35900 MFI.

B5: F1.115.8 human-murine chimeric antibody (antibody, human IgG1, kappa, V domains shown)
VH: EVQLQQSGPELVKPGASVKMSCKASGYTFTEYYMHWVKQSHGKSLEWIGYIYPNNGGNGYNQKFKGKATLTVDKSSSTAYMGLRSLTSEDSAVYYCVRGYYSNWYFDVWGTGTTVTVSS
VL: DVLMTQTPLSLPVSLGDQASISCRSSQSIVHSNGKTYLEWYLQKPGQSPKLLIYKVSNRFSGVPDRFSGSGSGTDFTLKISRVEAEDLGVYYCFQGSHVPFTFGSGTKLEIKR
In assay [1], B5 registered an OD450 at 0.0001 nM antibody of 0.05 OD450 nm, an OD450 at 0.001 nM antibody of 0.05 OD450 nm, an OD450 at 0.01 nM antibody of 0.07 OD450 nm and an OD450 at 0.1 nM antibody of 0.34 OD450 nm. Further, in assay [1], the OD450 at 1 nM antibody was 0.4 OD450 nm, the OD450 at 10 nM antibody came to 0.7 OD450 nm and the OD450 at 100 nM antibody was determined as 0.6 OD450 nm.

B6: F1.73.9 human-murine chimeric antibody (antibody, human IgG1, kappa, V domains shown)
VH: QVQLKQSGAELVRPGASVKLSCKASGYTFTDYYINWVKQRPGQGLEWIARIYPGSGNTYYNEKFKGKATLTAEKSSSTAYMQFSSLTSEDSAVYFCACSTYYTMDYWGQGTSVTVSS
VL: QIVLTQSPAIMSASLGERVTMTCTASSGVSSSYLHWYQQKPGSSPKLWIYTTSNLASGVPARFSGSGSGTSYSLTISSMEAEDAATYYCHQYHRSPYTFGGGTKLEIKR
In assay [1], B6 yielded an OD450 at 0.0001 nM antibody of 0.05 OD450 nm, an OD450 at 0.001 nM antibody of 0.06 OD450 nm, an OD450 at 0.01 nM antibody of 0.06 OD450 nm and an OD450 at 0.1 nM antibody of 0.58 OD450 nm. In assay [1], the OD450 at 1 nM antibody stood at 0.41 OD450 nm, the OD450 at 10 nM antibody was found to be 0.86 OD450 nm and the OD450 at 100 nM antibody amounted to 0.52 OD450 nm.

A word on the EC50: it is the concentration that produces a half-maximal response.
